# From patent publication US20130059773
# Target: recombinant PCNA (human PCNA cDNA, produced in E. coli from plasmid PETPCNA, purified)
protein,measurement,value
procaspase-9 (protein) MDEADRRLLRRCRLRLVEELQVDQLWDALLSRELFRPHMIEDIQRAGSGSRRDQARQLIIDLETRGSQALPLFISCLEDTGQDMLASFLRTNRQAAKLSKPTLENLTPVVLRPEIRKPEVLRPETPRPVDIGSGGFGDVGALESLRGNADLAYILSMEPCGHCLIINNVNFCRESGLRTRTGSNIDCEKLRRRFSSLHFMVEVKGDLTAKKMVLALLELAQQDHGALDCCVVVILSHGCQASHLQFPGAVYGTDGCPVSVEKIVNIFNGTSCPSLGGKPKLFFIQACGGEQKDHGFEVASTSPEDESPGSNPEPDATPFQEGLRTFDQLDAISSLPTPSDIFVSYSTFPGFVSWRDPKSGSWYVETLDDIFEQWAHSEDLQSLLLRVANAVSVKGIYKQMPGCFNFLRKKLFFKTS,"procaspase-9 cleavage in an in vitro activation assay (neutrophil cytosol, cytochrome c, dATP; western blot of caspase-9)","when purified PCNA was added to the mixture, procaspase-9 cleavage was delayed, with persistent procaspase-9 (47 kDa) and diminished 37-kDa fragment detection"
